Data: patent publication KR20160086217A (dated 2016)

Assays:
c-Met [1] = biological target: T1, c-Met (UniProt P08581 25-932, limits assumed); experiment: SPR, Biacore T100; antibody (from GSKO 301 GS cells) captured on Human Fab binder on CM5 chip, c-Met as analyte, 1:1 kinetic fit; rounded form of the value in r2
T1 construct: also called 항원인 c-Met

c-Met [2] = biological target: T1, c-Met; experiment: SPR, Biacore T100; antibody (from GSKO 301 GS cells) captured on Human Fab binder on CM5 chip, c-Met as analyte 25 to 0.78 nmol, 1:1 kinetic fit
c-Met [3] = biological target: T1, c-Met; experiment: SPR, Biacore T100; antibody (from GSKO GLUD1 301 GS cells) captured on Human Fab binder on CM5 chip, c-Met as analyte, 1:1 kinetic fit; rounded form of the value in r2
c-Met [4] = biological target: T1, c-Met; experiment: SPR, Biacore T100; antibody (from GSKO GLUD1 301 GS cells) captured on Human Fab binder on CM5 chip, c-Met as analyte 25 to 0.78 nmol, 1:1 kinetic fit

T1 sequence (P08581 25-932 limits assumed): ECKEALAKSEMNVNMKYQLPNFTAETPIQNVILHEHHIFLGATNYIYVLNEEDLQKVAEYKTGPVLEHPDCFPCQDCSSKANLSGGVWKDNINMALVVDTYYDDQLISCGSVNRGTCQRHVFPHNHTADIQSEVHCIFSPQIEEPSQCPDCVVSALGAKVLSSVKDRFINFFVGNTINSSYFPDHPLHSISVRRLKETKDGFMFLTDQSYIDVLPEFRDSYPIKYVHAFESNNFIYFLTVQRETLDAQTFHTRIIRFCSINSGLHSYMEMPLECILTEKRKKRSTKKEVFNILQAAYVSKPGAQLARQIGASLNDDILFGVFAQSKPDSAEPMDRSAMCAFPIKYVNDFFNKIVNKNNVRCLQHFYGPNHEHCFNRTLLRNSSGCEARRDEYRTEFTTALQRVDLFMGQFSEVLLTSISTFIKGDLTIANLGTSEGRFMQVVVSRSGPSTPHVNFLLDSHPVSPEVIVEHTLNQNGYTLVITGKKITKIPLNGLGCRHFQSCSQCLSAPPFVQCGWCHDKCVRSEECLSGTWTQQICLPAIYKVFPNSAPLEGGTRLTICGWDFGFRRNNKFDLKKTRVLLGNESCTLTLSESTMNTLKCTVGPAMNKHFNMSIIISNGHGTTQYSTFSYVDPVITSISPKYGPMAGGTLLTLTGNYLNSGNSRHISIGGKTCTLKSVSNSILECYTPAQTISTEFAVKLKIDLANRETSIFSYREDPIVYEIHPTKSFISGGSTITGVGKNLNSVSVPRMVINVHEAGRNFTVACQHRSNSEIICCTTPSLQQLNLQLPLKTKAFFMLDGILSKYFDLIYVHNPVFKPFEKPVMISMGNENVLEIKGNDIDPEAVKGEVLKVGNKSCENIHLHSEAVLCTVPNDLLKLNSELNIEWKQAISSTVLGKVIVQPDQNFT

B1: 항 c-Met 항체 L3-1Y/IgG2 (antibody, V domains shown)
VH: EVQLVESGGGLVQPGGSLRLSCAASGFTFTDYYMSWVRQAPGKGLEWLGFIRNKANGYTTEYSASVKGRFTISRDNSKNTLYLQMNSLRAEDTAVYYCARDNWFAYWGQGTLVTVSS
VL: DIQMTQSPSSLSASVGDRVTITCKSSQSLLASGNQNNYLAWYQQKPGKAPKMLIIWASTRVSGVPSRFSGSGSGTDFTLTISSLQPEDFATYYCQQSYSRPYTFGQGTKVEIKR
notes: also called S301-12A37 standard; S301-12A37
c-Met [1]
  Kd: 0.06 nM
c-Met [2]
  Kd: 0.0573 nM
c-Met [3]
  Kd: 0.09 nM
c-Met [4]
  Kd: 0.0926 nM
